Assay results taken from patent publication US20210403591A1 (OSSIANIX, published 2021).

How the values were obtained:
Assay in all cases: FACS, transfected Expi293 cells
[1] = molecular target: T1, mTfR-1 S255A on Expi293 cells (mouse, UniProt Q62351 1-763)
T1 construct: whole, on cells
Procedure: (§1) Transfected Expi293 cells were harvested and 2×10⁵ cells were transferred into V-bottom 96-well plate for staining. The cells were blocked in PBS containing 1% BSA (FACS buffer) for 10 min on ice, centrifuged to remove the buffer and 1 μl of 8D3-hFc formatted antibody, Clone C-hFc or Clone C variants 18 and 13 (Table 1), all at 1 mg/ml, was added to the wells. The cells were co-stained with mouse Tf-Alexa647 (Jackson ImmunoResearch). After 30 minutes on ice, the cells were washed and incubated with anti-hFc-PE (eBioscience) for 20 minutes on ice, washed again and resuspended in […] of FACS buffer containing 5 μl of propidium iodide (PI) to exclude dead cells from the analysis. The percentage of double-positive cells that stained with mTf and the tested antibody was determined on a CytoFlex cytometer (Beckman Coulter). The percentage of cells in the double positive quadrant (Q2) for WT mTfR-1 was used for normalization.

[2] = molecular target: T2, mTfR-1 Q327A on Expi293 cells (mouse, UniProt Q62351 1-763)
T2 construct: whole, on cells
Procedure: as §1

[3] = molecular target: T3, mTfR-1 T228A on Expi293 cells (mouse, UniProt Q62351 1-763)
T3 construct: whole, on cells
Procedure: as §1

[4] = molecular target: T4, mTfR-1 K384A on Expi293 cells (mouse, UniProt Q62351 1-763)
T4 construct: whole, on cells
Procedure: as §1

[5] = molecular target: T5, mTfR-1 S328A on Expi293 cells (mouse, UniProt Q62351 1-763)
T5 construct: whole, on cells
Procedure: as §1

[6] = molecular target: T6, mTfR-1 S329A on Expi293 cells (mouse, UniProt Q62351 1-763)
T6 construct: whole, on cells
Procedure: as §1

[7] = molecular target: T7, mTfR-1 Q193A on Expi293 cells (mouse, UniProt Q62351 1-763)
T7 construct: whole, on cells
Procedure: as §1

[8] = molecular target: T8, mTfR-1 S196A on Expi293 cells (mouse, UniProt Q62351 1-763)
T8 construct: whole, on cells
Procedure: as §1

[9] = molecular target: T9, mTfR-1 S275A on Expi293 cells (mouse, UniProt Q62351 1-763)
T9 construct: whole, on cells
Procedure: as §1

[10] = molecular target: T10, mTfR-1 V230A on Expi293 cells (mouse, UniProt Q62351 1-763)
T10 construct: whole, on cells
Procedure: as §1

[11] = molecular target: T11, mTfR-1 K195A on Expi293 cells (mouse, UniProt Q62351 1-763)
T11 construct: whole, on cells
Procedure: as §1

[12] = molecular target: T12, mTfR-1 P335A on Expi293 cells (mouse, UniProt Q62351 1-763)
T12 construct: whole, on cells
Procedure: as §1

[13] = molecular target: T13, mTfR-1 N253A on Expi293 cells (mouse, UniProt Q62351 1-763)
T13 construct: whole, on cells
Procedure: as §1

[14] = molecular target: T14, mTfR-1 M202A on Expi293 cells (mouse, UniProt Q62351 1-763)
T14 construct: whole, on cells
Procedure: as §1

[15] = molecular target: T15, mTfR-1 V382A on Expi293 cells (mouse, UniProt Q62351 1-763)
T15 construct: whole, on cells
Procedure: as §1

[16] = molecular target: T16, WT mTfR-1 expressed on Expi293 cells (mouse, UniProt Q62351 1-763)
T16 construct: whole, on cells
Procedure: as §1

[17] = molecular target: T17, mTfR-1 P227A on Expi293 cells (mouse, UniProt Q62351 1-763)
T17 construct: whole, on cells
Procedure: as §1

[18] = molecular target: T18, mTfR-1 Q200A on Expi293 cells (mouse, UniProt Q62351 1-763)
T18 construct: whole, on cells
Procedure: as §1

[19] = molecular target: T19, mTfR-1 I279A on Expi293 cells (mouse, UniProt Q62351 1-763)
T19 construct: whole, on cells
Procedure: as §1

[20] = molecular target: T20, mTfR-1 S197A on Expi293 cells (mouse, UniProt Q62351 1-763)
T20 construct: whole, on cells
Procedure: as §1

[21] = molecular target: T21, mTfR-1 K226A on Expi293 cells (mouse, UniProt Q62351 1-763)
T21 construct: whole, on cells
Procedure: as §1

[22] = molecular target: T22, mTfR-1 V194A on Expi293 cells (mouse, UniProt Q62351 1-763)
T22 construct: whole, on cells
Procedure: as §1

[23] = molecular target: T23, mTfR-1 Q274A on Expi293 cells (mouse, UniProt Q62351 1-763)
T23 construct: whole, on cells
Procedure: as §1

[24] = molecular target: T24, mTfR-1 K380A on Expi293 cells (mouse, UniProt Q62351 1-763)
T24 construct: whole, on cells
Procedure: as §1

[25] = molecular target: T25, mTfR-1 L383A on Expi293 cells (mouse, UniProt Q62351 1-763)
T25 construct: whole, on cells
Procedure: as §1

[26] = molecular target: T26, mTfR-1 P324A on Expi293 cells (mouse, UniProt Q62351 1-763)
T26 construct: whole, on cells
Procedure: as §1

[27] = molecular target: T27, mTfR-1 S231A on Expi293 cells (mouse, UniProt Q62351 1-763)
T27 construct: whole, on cells
Procedure: as §1

[28] = molecular target: T28, mTfR-1 G199A on Expi293 cells (mouse, UniProt Q62351 1-763)
T28 construct: whole, on cells
Procedure: as §1

[29] = molecular target: T29, mTfR-1 G330A on Expi293 cells (mouse, UniProt Q62351 1-763)
T29 construct: whole, on cells
Procedure: as §1

T12 sequence (Q62351 whole entry P335A): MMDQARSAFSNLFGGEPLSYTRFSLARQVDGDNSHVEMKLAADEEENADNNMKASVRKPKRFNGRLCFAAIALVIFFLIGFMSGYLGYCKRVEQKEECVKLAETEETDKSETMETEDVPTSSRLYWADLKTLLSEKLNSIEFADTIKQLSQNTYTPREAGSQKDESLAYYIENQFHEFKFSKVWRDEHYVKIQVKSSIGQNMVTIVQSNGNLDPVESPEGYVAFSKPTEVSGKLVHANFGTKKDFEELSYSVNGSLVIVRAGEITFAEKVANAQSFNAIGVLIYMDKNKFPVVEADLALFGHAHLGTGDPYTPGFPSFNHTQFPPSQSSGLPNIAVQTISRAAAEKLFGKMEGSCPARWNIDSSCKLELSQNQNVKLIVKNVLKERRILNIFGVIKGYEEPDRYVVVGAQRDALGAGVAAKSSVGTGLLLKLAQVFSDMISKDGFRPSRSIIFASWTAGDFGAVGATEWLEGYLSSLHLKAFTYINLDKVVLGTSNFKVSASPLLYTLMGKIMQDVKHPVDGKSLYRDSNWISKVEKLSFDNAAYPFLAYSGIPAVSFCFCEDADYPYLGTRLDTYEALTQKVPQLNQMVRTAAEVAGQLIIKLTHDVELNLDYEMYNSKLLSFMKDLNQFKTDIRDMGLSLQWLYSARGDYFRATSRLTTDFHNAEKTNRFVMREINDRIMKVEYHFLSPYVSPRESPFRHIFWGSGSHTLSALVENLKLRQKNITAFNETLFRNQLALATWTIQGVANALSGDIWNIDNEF
T3 sequence (Q62351 whole entry T228A): as the sequence (Q62351 whole entry P335A) above, with T228A, A335P counted along it
T17 sequence (Q62351 whole entry P227A): as the sequence (Q62351 whole entry P335A) above, with P227A, A335P counted along it
T29 sequence (Q62351 whole entry G330A): as the sequence (Q62351 whole entry P335A) above, with G330A, A335P counted along it
T8 sequence (Q62351 whole entry S196A): as the sequence (Q62351 whole entry P335A) above, with S196A, A335P counted along it
T11 sequence (Q62351 whole entry K195A): as the sequence (Q62351 whole entry P335A) above, with K195A, A335P counted along it
T21 sequence (Q62351 whole entry K226A): as the sequence (Q62351 whole entry P335A) above, with K226A, A335P counted along it
T14 sequence (Q62351 whole entry M202A): as the sequence (Q62351 whole entry P335A) above, with M202A, A335P counted along it
T9 sequence (Q62351 whole entry S275A): as the sequence (Q62351 whole entry P335A) above, with S275A, A335P counted along it
T7 sequence (Q62351 whole entry Q193A): as the sequence (Q62351 whole entry P335A) above, with Q193A, A335P counted along it
T24 sequence (Q62351 whole entry K380A): as the sequence (Q62351 whole entry P335A) above, with A335P, K380A counted along it
T22 sequence (Q62351 whole entry V194A): as the sequence (Q62351 whole entry P335A) above, with V194A, A335P counted along it
T23 sequence (Q62351 whole entry Q274A): as the sequence (Q62351 whole entry P335A) above, with Q274A, A335P counted along it
T13 sequence (Q62351 whole entry N253A): as the sequence (Q62351 whole entry P335A) above, with N253A, A335P counted along it
T20 sequence (Q62351 whole entry S197A): as the sequence (Q62351 whole entry P335A) above, with S197A, A335P counted along it
T1 sequence (Q62351 whole entry S255A): as the sequence (Q62351 whole entry P335A) above, with S255A, A335P counted along it
T28 sequence (Q62351 whole entry G199A): as the sequence (Q62351 whole entry P335A) above, with G199A, A335P counted along it
T6 sequence (Q62351 whole entry S329A): as the sequence (Q62351 whole entry P335A) above, with S329A, A335P counted along it
T27 sequence (Q62351 whole entry S231A): as the sequence (Q62351 whole entry P335A) above, with S231A, A335P counted along it
T4 sequence (Q62351 whole entry K384A): as the sequence (Q62351 whole entry P335A) above, with A335P, K384A counted along it
T26 sequence (Q62351 whole entry P324A): as the sequence (Q62351 whole entry P335A) above, with P324A, A335P counted along it
T25 sequence (Q62351 whole entry L383A): as the sequence (Q62351 whole entry P335A) above, with A335P, L383A counted along it
T15 sequence (Q62351 whole entry V382A): as the sequence (Q62351 whole entry P335A) above, with A335P, V382A counted along it
T18 sequence (Q62351 whole entry Q200A): as the sequence (Q62351 whole entry P335A) above, with Q200A, A335P counted along it
T2 sequence (Q62351 whole entry Q327A): as the sequence (Q62351 whole entry P335A) above, with Q327A, A335P counted along it
T16 sequence (Q62351 whole entry): as the sequence (Q62351 whole entry P335A) above, with A335P counted along it
T19 sequence (Q62351 whole entry I279A): as the sequence (Q62351 whole entry P335A) above, with I279A, A335P counted along it
T5 sequence (Q62351 whole entry S328A): as the sequence (Q62351 whole entry P335A) above, with S328A, A335P counted along it
T10 sequence (Q62351 whole entry V230A): as the sequence (Q62351 whole entry P335A) above, with V230A, A335P counted along it

B1: Clone C variant 18 VNAR-hFc (Fc fusion, not shown: a dimerising Fc or GST)
chain: ARVDQTPQTITKETGESLTINCVLRDSNCALSSTYWYRKKSGSTNEENISKGGRYVETVNSGSKSFSLRINDLTVEDSGTYRCNVVQYPQYPNYFWCDVYGDGTAVTVN
notes: also called Clone C v18; Clone C var; 18
% double-positive cells vs WT [1]: 23%
% double-positive cells vs WT [2]: 119%
% double-positive cells vs WT [3]: 45%
% double-positive cells vs WT [4]: 147%
% double-positive cells vs WT [5]: 20%
% double-positive cells vs WT [6]: 182%
% double-positive cells vs WT [7]: 178%
% double-positive cells vs WT [8]: 104%
% double-positive cells vs WT [9]: 136%
% double-positive cells vs WT [10]: 59%
% double-positive cells vs WT [11]: 150%
% double-positive cells vs WT [12]: 138%
% double-positive cells vs WT [13]: 10%
% double-positive cells vs WT [14]: 153%
% double-positive cells vs WT [15]: 241%
% double-positive cells vs WT [16]: 100%
% double-positive cells vs WT [17]: 20%
% double-positive cells vs WT [18]: 171%
% double-positive cells vs WT [19]: 206%
% double-positive cells vs WT [20]: 66%
% double-positive cells vs WT [21]: 91%
% double-positive cells vs WT [22]: 199%
% double-positive cells vs WT [23]: 229%
% double-positive cells vs WT [24]: 162%
% double-positive cells vs WT [25]: 354%
% double-positive cells vs WT [26]: 39%
% double-positive cells vs WT [27]: 173%
% double-positive cells vs WT [28]: 42%
% double-positive cells vs WT [29]: 231%
